Measured values as given in PMC7907450.

Tests used:
[1] = tested on: 30S ribosomal subunit initiation complex with IF1, IF2, IF3 and BPY-Met-tRNAfMet; test: MST; conditions: MST: buffer TAKM7 (7 mM Mg2+; full composition not in material), 30 min at 37 C, A-site peptidyl-tRNA: buffer TAKM with 7-20 mM Mg2+, nitrocellulose …
[2] = tested on: 30S ribosomal subunit initiation complex without IF3 (IF1, IF2, BPY-Met-tRNAfMet); test: MST; conditions: MST: buffer TAKM7 (7 mM Mg2+; full composition not in material), 30 min at 37 C, A-site peptidyl-tRNA: buffer TAKM with 7-20 mM Mg2+, nitrocellulose …
[3] = tested on: 70S ribosome pretranslocation complex, deacylated tRNAfMet in P site, A site; test: nitrocellulose filter binding, koff/kon; conditions: 7 mM Mg2+, aminoacylated with fMet-Val dipeptide, MST: buffer TAKM7 (7 mM Mg2+; full composition not in material), 30 min at 37 C, A-site peptidyl-tRNA: buffer TAKM with 7-20 mM Mg2+
[4] = tested on: 30S ribosomal subunit initiation complex with IF1, IF2, IF3 and elongator BPY-Phe-tRNAPhe; test: MST; conditions: 60 uM amicoumacin A, MST: buffer TAKM7 (7 mM Mg2+; full composition not in material), 30 min at 37 C, A-site peptidyl-tRNA: buffer TAKM with 7-20 mM Mg2+, nitrocellulose …

Substance: model mRNA UUC start codon
- Kd ([1]; 60 uM amicoumacin A): 584 nM
- Kd ([2]; no IF3, amicoumacin A): 587 nM
- Kd ([2]; no IF3, no antibiotic): 1270 nM

Substance: fMet-[14C]Val-tRNAVal
- Kd ([3]; 30 uM amicoumacin A): 461 nM
- Kd ([3]; no antibiotic): 688 nM

Substance: model mRNA AUG (Met-Phe)
- Kd ([1]; 30 uM edeine): 568 nM
- Kd ([1]; 60 uM amicoumacin A): 169 nM
- Kd ([1]; 60 uM kasugamycin): 59 nM
- Kd ([1]; no antibiotic): 18 nM
- Kd ([2]; no IF3, amicoumacin A): 77 nM
- Kd ([2]; no IF3, no antibiotic): 1280 nM
- Kd [4]: 940 nM
